Results reported in publication PMC2173478.

Target: cytochrome c
Test: SEC

- stoichiometry N: 2
Substance: cytochrome c (natural protein)
